Holding throughout (test): SIMPL ELISA, bait-IN/prey-CIC
In experiment [1] the target is T1, DCP1A (prey, CIC format) (human) (UniProt Q9NPI6).
T1 sequence (looked up): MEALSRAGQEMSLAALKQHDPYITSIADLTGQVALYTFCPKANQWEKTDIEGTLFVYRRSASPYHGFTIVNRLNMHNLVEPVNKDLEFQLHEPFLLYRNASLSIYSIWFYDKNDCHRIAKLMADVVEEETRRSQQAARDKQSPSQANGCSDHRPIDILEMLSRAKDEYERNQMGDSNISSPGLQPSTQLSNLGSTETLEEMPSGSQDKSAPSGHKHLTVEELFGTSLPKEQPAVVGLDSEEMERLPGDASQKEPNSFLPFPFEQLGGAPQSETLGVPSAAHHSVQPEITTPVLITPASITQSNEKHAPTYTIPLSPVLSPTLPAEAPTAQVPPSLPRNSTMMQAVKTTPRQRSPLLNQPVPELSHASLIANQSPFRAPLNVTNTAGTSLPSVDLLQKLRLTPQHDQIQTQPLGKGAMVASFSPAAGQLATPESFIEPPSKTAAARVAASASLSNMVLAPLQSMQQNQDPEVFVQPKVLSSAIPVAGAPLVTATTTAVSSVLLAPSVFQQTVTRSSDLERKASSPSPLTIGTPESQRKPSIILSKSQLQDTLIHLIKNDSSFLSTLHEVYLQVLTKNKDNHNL

In experiment [2] the target is BCL2L1 (prey, CIC format) (human) (UniProt Q07817).
Chain of BCL2L1 (prey, CIC format) (human) (Q07817 whole entry): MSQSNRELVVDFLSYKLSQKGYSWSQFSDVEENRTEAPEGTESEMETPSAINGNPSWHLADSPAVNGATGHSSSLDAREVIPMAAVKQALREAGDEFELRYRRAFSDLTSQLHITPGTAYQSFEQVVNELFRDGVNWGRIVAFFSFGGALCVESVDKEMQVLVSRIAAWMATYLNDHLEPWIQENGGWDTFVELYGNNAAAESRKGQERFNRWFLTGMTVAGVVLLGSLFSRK
The target in experiment [3] is T2, PTPN11 (prey, CIC format) (human) (UniProt Q06124).
T2 sequence (looked up): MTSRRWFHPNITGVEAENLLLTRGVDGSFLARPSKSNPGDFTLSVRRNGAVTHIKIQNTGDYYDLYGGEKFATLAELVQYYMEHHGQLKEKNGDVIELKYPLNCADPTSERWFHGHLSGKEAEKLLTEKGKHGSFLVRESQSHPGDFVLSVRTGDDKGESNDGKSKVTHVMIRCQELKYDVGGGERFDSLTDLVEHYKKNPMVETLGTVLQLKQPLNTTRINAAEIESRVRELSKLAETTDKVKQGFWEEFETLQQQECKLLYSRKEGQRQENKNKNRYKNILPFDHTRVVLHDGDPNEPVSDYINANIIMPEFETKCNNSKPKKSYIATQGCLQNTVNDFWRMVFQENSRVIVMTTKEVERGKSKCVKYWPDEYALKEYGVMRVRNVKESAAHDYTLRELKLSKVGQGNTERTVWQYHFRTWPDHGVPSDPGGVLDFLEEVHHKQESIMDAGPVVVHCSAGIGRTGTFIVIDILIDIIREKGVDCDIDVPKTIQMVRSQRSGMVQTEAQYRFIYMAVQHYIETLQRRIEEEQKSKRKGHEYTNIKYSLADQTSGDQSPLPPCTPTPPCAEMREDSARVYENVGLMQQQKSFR

The target in experiment [4] is T3, BATF (prey, CIC format) (human) (UniProt Q16520).
T3 sequence (looked up): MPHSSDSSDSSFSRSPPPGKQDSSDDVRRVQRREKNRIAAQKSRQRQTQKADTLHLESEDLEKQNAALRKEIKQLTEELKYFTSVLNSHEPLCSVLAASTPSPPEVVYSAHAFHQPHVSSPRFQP

Experiment [5] has as its target LMNB1 (prey, CIC format) (human) (UniProt P20700).
Experiment [6] has as its target DDIT3 (prey, CIC format) (human) (UniProt P35638).

Chain of DDIT3 (prey, CIC format) (human) (P35638 whole entry): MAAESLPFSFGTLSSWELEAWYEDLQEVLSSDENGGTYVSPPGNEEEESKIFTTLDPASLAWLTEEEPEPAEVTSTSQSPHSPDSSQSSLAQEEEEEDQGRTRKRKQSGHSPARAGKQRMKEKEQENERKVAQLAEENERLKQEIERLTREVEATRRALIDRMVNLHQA
Chain of LMNB1 (prey, CIC format) (human) (P20700 whole entry): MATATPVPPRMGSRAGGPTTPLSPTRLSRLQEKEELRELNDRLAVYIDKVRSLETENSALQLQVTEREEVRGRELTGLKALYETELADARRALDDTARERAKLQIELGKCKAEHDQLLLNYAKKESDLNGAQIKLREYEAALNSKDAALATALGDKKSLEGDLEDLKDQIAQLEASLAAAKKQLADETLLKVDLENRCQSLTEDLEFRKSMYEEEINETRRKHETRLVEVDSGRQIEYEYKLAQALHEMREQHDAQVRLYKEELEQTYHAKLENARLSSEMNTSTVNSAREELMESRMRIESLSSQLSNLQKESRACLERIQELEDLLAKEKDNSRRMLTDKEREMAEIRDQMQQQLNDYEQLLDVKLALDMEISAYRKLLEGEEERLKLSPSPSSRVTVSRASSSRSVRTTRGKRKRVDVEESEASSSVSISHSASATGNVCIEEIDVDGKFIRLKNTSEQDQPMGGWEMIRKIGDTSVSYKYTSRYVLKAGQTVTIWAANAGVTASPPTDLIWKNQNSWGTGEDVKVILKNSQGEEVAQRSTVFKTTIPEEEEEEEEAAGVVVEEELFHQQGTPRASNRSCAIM

B1: BAD (bait, IN format) (protein, human, UniProt Q92934 1-168, looked up)
chain: MFQIPEFEPSEQEDSSSAERGLGPSPAGDGPSGSGKHHRQAPGLLWDASHQQEQPTSSSHHGGAGAVEIRSRHSSYPAGTEDDEGMGEEPSPFRGRSRSAPPNLWAAQRYGRELRRMSDEFVDSFKKGLPRPKSAGTATQMRQSSSWTRVFQSWWDRNLGRGSSAPSQ
Turning to B1, the PLU mean in experiment [1] came to 0.499; in experiment [2] it was 1.85.

B2: JUNB (bait, IN format) (protein, human, UniProt P17275 1-347, looked up)
chain: MCTKMEQPFYHDDSYTATGYGRAPGGLSLHDYKLLKPSLAVNLADPYRSLKAPGARGPGPEGGGGGSYFSGQGSDTGASLKLASSELERLIVPNSNGVITTTPTPPGQYFYPRGGGSGGGAGGAGGGVTEEQEGFADGFVKALDDLHKMNHVTPPNVSLGATGGPPAGPGGVYAGPEPPPVYTNLSSYSPASASSGGAGAAVGTGSSYPTTTISYLPHAPPFAGGHPAQLGLGRGASTFKEEPQTVPEARSRDATPPVSPINMEDQERIKVERKRLRNRLAATKCRKRKLERIARLEDKVKTLKAENAGLSSTAGLLREQVAQLKQKVMTHVSNGCQLLLGVKGHAF
On to B2, for which the values for the PLU mean in experiment [3] and in experiment [4] were 0.345 and 2.04, respectively.

B3: ATF3 (bait, IN format) (protein, human, UniProt P18847 1-181, looked up)
chain: MMLQHPGQVSASEVSASAIVPCLSPPGSLVFEDFANLTPFVKEELRFAIQNKHLCHRMSSALESVTVSDRPLGVSITKAEVAPEEDERKKRRRERNKIAAAKCRNKKKEKTECLQKESEKLESVNAELKAQIEELKNEKQHLIYMLNLHRPTCIVRAQNGRTPEDERNLFIQQIKEGTLQS
Turning to B3, the PLU mean is 0.134 in experiment [5] and 1.64 in experiment [6].

The values are drawn from US20220229068A1, “DETECTION OF PROTEIN TO PROTEIN INTERACTIONS” (THE GOVERNING COUNCIL OF THE UNIVERSITY OF TORONTO, priority 2019, published 2022).
